The source of these data is patent US20090304580A1.

In assay [1] the target is PAM4 antigen (human pancreatic cancer mucin, CaPan1) (human). Put plainly: radiolabelled TF10 mixed with mucin, size-exclusion analysis. For orientation: SEC sorts molecules by how far they enter the pores of the column.
Assay [2] concerns the target IMP-288 di-HSG hapten-peptide, DOTA-D-Tyr-D-Lys(HSG)-D-Glu-D-Lys(HSG)-NH2. Put plainly: size-exclusion elution of 111In-IMP-288 with TF10.
Assay [3] addresses PAM4 antigen (human pancreatic cancer mucin, CaPan1) (human). Put plainly: size-exclusion elution of the 111In-IMP-288/TF10 complex with excess mucin.
Assay [4] has the same target. Put plainly: ELISA on target mucin antigen (FIG. 9). (In an ELISA, binding on a coated surface is turned into a signal by an enzyme label.)

In turn, “TF10 bispecific ([hPAM4]2 x h679) trimeric DNL construct (bispecific antibody)” returned an immunoreactive fraction bound in assay [1] of 87%. In assay [2], this substance showed a percent bound of 90%. In assay [3], this substance showed a percent of TF10-bound peptide eluting at higher molecular weight with excess mucin of 92%. Also, in assay [4], the EC50 (usually the concentration giving half of the maximal effect) was 1.42 nM.
For the substance PAM4-F(ab')2 (antibody), the concentration giving a half-maximal response (EC50) in assay [4] worked out at 1.83 nM.
